The source of these data is IntAct's records for PubMed 29039417.

B1: Protein PTHB1 (Homo sapiens), Q3SYG4 (parent)
chain: MSLFKARDWWSTILGDKEEFDQGCLCLANVDNSGNGQDKIIVGSFMGYLRIFSPHPAKTGDGAQAEDLLLEVDLRDPVLQVEVGKFVSGTEMLHLAVLHSRKLCVYSVSGTLGNVEHGNQCQMKLMYEHNLQRTACNMTYGSFGGVKGRDLICIQSMDGMLMVFEQESYAFGRFLPGFLLPGPLAYSSRTDSFLTVSSCQQVESYKYQVLAFATDADKRQETEQQKLGSGKRLVVDWTLNIGEQALDICIVSFNQSASSVFVLGERNFFCLKDNGQIRFMKKLDWSPSCFLPYCSVSEGTINTLIGNHNNMLHIYQDVTLKWATQLPHIPVAVRVGCLHDLKGVIVTLSDDGHLQCSYLGTDPSLFQAPNVQSRELNYDELDVEMKELQKIIKDVNKSQGVWPMTEREDDLNVSVVVSPNFDSVSQATDVEVGTDLVPSVTVKVTLQNRVILQKAKLSVYVQPPLELTCDQFTFEFMTPDLTRTVSFSVYLKRSYTPSELEGNAVVSYSRPTDRNPDGIPRVIQCKFRLPLKLICLPGQPSKTASHKITIDTNKSPVSLLSLFPGFASQSDDDQVNVMGFHFLGGARITVLASKTSQRYRIQSEQFEDLWLITNELILRLQEYFEKQGVKDFACSFSGSIPLQEYFELIDHHFELRINGEKLEELLSERAVQFRAIQRRLLARFKDKTPAPLQHLDTLLDGTYKQVIALADAVEENQGNLFQSFTRLKSATHLVILLIALWQKLSADQVAILEAAFLPLQEDTQELGWEETVDAAISHLLKTCLSKSSKEQALNLNSQLNIPKDTSQLKKHITLLCDRLSKGGRLCLSTDAAAPQTMVMPGGCTTIPESDLEERSVEQDSTELFTNHRHLTAETPRPEVSPLQGVSE
partner: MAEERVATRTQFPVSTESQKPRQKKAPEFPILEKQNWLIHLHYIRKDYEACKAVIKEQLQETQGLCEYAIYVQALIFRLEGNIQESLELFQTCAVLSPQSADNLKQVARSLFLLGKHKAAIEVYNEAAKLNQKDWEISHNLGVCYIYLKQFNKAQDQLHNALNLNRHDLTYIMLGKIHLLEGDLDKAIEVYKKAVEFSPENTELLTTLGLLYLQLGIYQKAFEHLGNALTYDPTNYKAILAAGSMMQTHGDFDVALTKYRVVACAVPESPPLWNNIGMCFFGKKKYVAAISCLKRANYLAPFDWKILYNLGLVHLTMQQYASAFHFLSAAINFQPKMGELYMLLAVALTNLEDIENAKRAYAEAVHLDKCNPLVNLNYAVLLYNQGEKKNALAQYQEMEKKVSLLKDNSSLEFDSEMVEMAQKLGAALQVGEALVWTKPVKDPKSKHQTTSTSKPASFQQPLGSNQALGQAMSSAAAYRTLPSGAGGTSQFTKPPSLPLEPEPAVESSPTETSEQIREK

The variants in this assay derive from B1. Conditions: with bbs4_human BBS4, Q96RK4.
As for G579K, the “effect of a mutation on the interaction” value is reported as “with no effect”.
As for E501K, the “effect of a mutation on the interaction” value was “with no effect”.
For R726K the value was “with no effect”; for Q717A, “with no effect”; for H651E, “with no effect”.
For L736A, the “effect of a mutation on the interaction” value is “with no effect”.
On to R656K, for which the “effect of a mutation on the interaction” value is listed as “with no effect”.
For K781A the value was “with no effect”; for V415K, “with no effect”; for K789A, “with no effect”.
Then T763E, with “with no effect”; and E770A, with “disrupting interaction strength”; and E770K, with “with no effect”.
Then E873K, with “with no effect”; and I548E, with “with no effect”; and P537L, with “disrupting interaction strength”.
On to K554S, for which the “effect of a mutation on the interaction” value is “disrupting interaction strength”.
For Y490E the value was “with no effect”.
For T813K the value was “with no effect”; for V772A, “with no effect”; for L780A, “with no effect”.
For T445K the value was “with no effect”.
Regarding L559A, the “effect of a mutation on the interaction” value is reported as “with no effect”.
V577K: the “effect of a mutation on the interaction” value is recorded as “with no effect”.
On to V577A, for which the “effect of a mutation on the interaction” value is listed as “with no effect”.
As for F421K, the “effect of a mutation on the interaction” value is reported as “with no effect”.
For the variant T874A, the “effect of a mutation on the interaction” value is “with no effect”.
Then R678H, with “disrupting interaction strength”; and R669E, with “with no effect”; and I801E, with “with no effect”.
For E408K the value was “with no effect”; for E753K, “with no effect”; for L648K, “with no effect”.
For V440K the value was “disrupting interaction strength”; for V442K, “with no effect”.
F566K: the “effect of a mutation on the interaction” value was “with no effect”.
For L560E the value was “with no effect”; for P691A, “with no effect”.
Then V734E, with “with no effect”.
Take E848A: the “effect of a mutation on the interaction” value is given as “with no effect”.
Then R674Q, with “disrupting interaction strength”; and E406K, with “with no effect”.
For S787K the value was “with no effect”; for G628A, “with no effect”; for S545E, “with no effect”.
For R876A the value was “with no effect”.
Take R587T: the “effect of a mutation on the interaction” value is listed as “disrupting interaction strength”.
Then K687A, with “with no effect”.
For L491E the value was “with no effect”.
For V706A the value was “with no effect”; for R528E, “with no effect”.
For V417K, the “effect of a mutation on the interaction” value was “with no effect”.
For A754E the value was “with no effect”; for E604A, “with no effect”.
Regarding H581E, the “effect of a mutation on the interaction” value was “with no effect”.
With H581K, the “effect of a mutation on the interaction” value was “with no effect”.
On to D711A, for which the “effect of a mutation on the interaction” value was “with no effect”.
Then D711K, with “with no effect”; and D650K, with “with no effect”; and G502R, with “disrupting interaction strength”.
Turning to Q835M, the “effect of a mutation on the interaction” value is given as “disrupting interaction strength”.
As to Q597R, the “effect of a mutation on the interaction” value is given as “disrupting interaction strength”.
Then Q574R, with “disrupting interaction strength”; and Q574E, with “with no effect”.
Then P497K, with “with no effect”; and P497A, with “with no effect”; and R854K, with “with no effect”.
Then D608A, with “with no effect”; and C535E, with “with no effect”; and Q462A, with “with no effect”.
As to L436E, the “effect of a mutation on the interaction” value is “with no effect”.
Take S849K: the “effect of a mutation on the interaction” value is “with no effect”.
For the variant A710K, the “effect of a mutation on the interaction” value was “with no effect”.
Then G842E, with “with no effect”.
Regarding L533E, the “effect of a mutation on the interaction” value is on record as “with no effect”.
L591E: the “effect of a mutation on the interaction” value is on record as “with no effect”.
Regarding L814E, the “effect of a mutation on the interaction” value was “with no effect”.
L665R: the “effect of a mutation on the interaction” value is “disrupting interaction strength”.
Then L665K, with “with no effect”; and Q569E, with “with no effect”.
Turning to P875E, the “effect of a mutation on the interaction” value is “with no effect”.
For P875A the value was “with no effect”; for G718S, “disrupting interaction strength”; for G718K, “with no effect”.
As to S570E, the “effect of a mutation on the interaction” value is “with no effect”.
For E887K the value was “with no effect”.
Q605A: the “effect of a mutation on the interaction” value is reported as “with no effect”.
For Y599A the value was “with no effect”.
